{"source": "paper PMC9038204", "about": "“SNX27–Retromer directly binds ESCPE-1 to transfer cargo proteins during endosomal recycling” (PLoS Biology, 2022)", "molecules": {"B1": {"name": "GFP-SNX2(D26K,D72K): mutant targeting both aDLF motifs in SNX2 (protein, UniProt O60749 1-519, looked up, variant D26K D72K)", "Sorting nexin-2": "MAAEREPPPLGDGKPTDFEDLEDGEKLFTSTVSTLESSPSSPEPASLPAEDISANSNGPKPTEVVLDDDREKLFAEATEEVSLDSPEREPILSSEPSPAVTPVTPTTLIAPRIESKSMSAPVIFDRSREEIEEEANGDIFDIEIGVSDPEKVGDGMNAYMAYRVTTKTSLSMFSKSEFSVKRRFSDFLGLHSKLASKYLHVGYIVPPAPEKSIVGMTKVKVGKEDSSSTEFVEKRRAALERYLQRTVKHPTLLQDPDLRQFLESSELPRAVNTQALSGAGILRMVNKAADAVNKMTIKMNESDAWFEEKQQQFENLDQQLRKLHVSVEALVCHRKELSANTAAFAKSAAMLGNSEDHTALSRALSQLAEVEEKIDQLHQEQAFADFYMFSELLSDYIRLIAAVKGVFDHRMKCWQKWEDAQITLLKKREAEAKMMVANKPDKIQQAKNEIREWEAKVQQGERDFEQISKTIRKEVGRFEKERVKDFKTVIIKYLESLVQTQQQLIKYWEAFLPEAKAIA", "modifications": "GFP tag"}, "B2": {"name": "mSNX1_1-139: recombinant truncated mSNX1 containing residues 1 to 139, GST fusion protein (protein)", "chain": "MASGGGGCSASERLPPPFPGMDPESEGAAGASEPEAGDSDTEGEDIFTGAAAATKPQSPKKTTSLFPIKNGSKENGIHEDQDQEPQDLFADATVELSLDSTQNNQKTMPGKTLTSHSPQEATNSPKPQPSYEELEEEEQ", "modifications": "left off: GST, N-terminal, kept", "notes": "recombinant truncated mSNX1 containing residues 1 to 139, GST fusion protein"}, "B3": {"name": "mSNX1FL: recombinant full-length mouse SNX1 with an amino-terminal His-tag (protein)", "chain": "MASGGGGCSASERLPPPFPGMDPESEGAAGASEPEAGDSDTEGEDIFTGAAAATKPQSPKKTTSLFPIKNGSKENGIHEDQDQEPQDLFADATVELSLDSTQNNQKTMPGKTLTSHSPQEATNSPKPQPSYEELEEEEQEDQFDLTVGITDPEKIGDGMNAYVAYKVTTQTSLPMFRSRQFAVKRRFSDFLGLYEKLSEKHSQNGFIVPPPPEKSLIGMTKVKVGKEDSSSAEFLEKRRAALERYLQRIVNHPTMLQDPDVREFLEKEELPRAVGTQALSGAGLLKMFNKATDAVSKMTIKMNESDIWFEEKLQEVECEEQRLRKLHAVVETLVNHRKELALNTALFAKSLAMLGSSEDNTALSRALSQLAEVEEKIEQLHQEQANNDSFLLAELLSDYIRLLAIVRAAFDQRMKTWQRWQDAQATLQKKRESEARLLWANKPDKLQQAKDEITEWESRVTQYERDFERISTVVRKEVTRFEKEKSKDFKNHVMKYLETLLHSQQQLAKYWEAFLPEAKAIS", "modifications": "left off: His-tag, N-terminal, kept"}}, "key": {"SNX27": {"tested_on": "SNX27", "assay": "GFP trap co-immunoprecipitation of GFP-SNX1/SNX2 constructs from HEK-293T, quantitative western blot: SNX27", "assay_type": "binding", "settings": "Fig 3F, S2B Fig; double aDLF mutants in HEK293T, GFP trap", "protocol": "HeLa and HEK-293T cell lines were sourced from ATCC. Authentication was from the ATCC. Cells were grown in DMEM (Sigma-Aldrich) supplemented with 10% (v/v) FCS (Sigma-Aldrich) and penicillin/streptomycin (Gibco, USA) and grown under standard conditions. FuGENE HD (Promega, USA) was used for transient transfection of DNA according to the manufacturer’s instructions. Cycloheximide was used to prevent up-regulation of protein synthesis. In this case, cycloheximide (C7698; Sigma-Aldrich) at 10 μg/ml was added to the cells 48 hours after FuGENE transfection for the indicated time points. For the generation of CRISPR-Cas9 SNX27 knockout HeLa cells, HeLa cells were transfected with pX330 plasmid coding for the gRNA against the gene of interest together with a puromycin resistance–expressing plasmid. Cells were then subjected to puromycin selection for 24 hours. The pooled population of cells was subjected to lysis and western blotting to confirm the knockout. The VPS35 knockout clonal cell line used in this study was characterized previously. […]\nFor western blotting, cells were lysed in PBS with 1% (v/v) Triton X-100 and protease inhibitor cocktail. The protein concentration was determined with a BCA assay kit (Thermo Fisher Scientific, USA), and equal amounts were resolved on NuPAGE 4% to 12% precast gels (Invitrogen, USA). […]"}, "[1]": {"tested_on": "FERM domain of human SNX27 (hSNX27FERM)", "assay": "ITC, hSNX27FERM titrated into mSNX1 proteins", "assay_type": "binding", "settings": "25°C", "protocol": "Human SNX1 and SNX2 peptide sequences were synthesized by Genscript (USA). To obtain the peptide stock solutions at neutral pH, 100 mM Tris-HCl, pH 10.6 was used to dissolve the peptide to a final concentration of 8 mM. The peptides were SNX1_35-51 […], SNX135-51(D45K) […], SNX1_75-92 […], SNX2_16-33 […], SNX2_16-33(DLF/SSS) […], and SNX2_62-82 […].\nAll microcalorimetry experiments were conducted at 25°C using a PEAQ ITC (Malvern, UK) in 50 mM HEPES (pH 7.5), 200 mM NaCl, 5% glycerol, and 1 mM β-ME (ITC buffer). All proteins were purified by SEC using the same buffer prior to ITC experiments to avoid buffer mismatches. To measure binding of SNX27 to SNX1 proteins, 800 μM of hSNX27FERM was titrated into 20 μM of GST-mSNX1_1-139 or His-SNX1FL. For the binding of SNX1 and SNX2 peptides to SNX27, peptides were diluted 10-fold to 800 μM in ITC buffer peptides and titrated into 20 μM SNX27FL proteins containing the same 1:10 ratio of peptide buffer (100 mM Tris-HCl, pH 10.6). The competitive ITC experiments were carried out by titrating 800 μM SNX1_75-92 peptides into 20 μM proteins with 2-fold molar excess SNX2_16-33 peptide preincubated with SNX27 on ice for an hour. For ITC experiment using SNX1_75-92 against hSNX27 wild-type and single-site mutants, 600 μM SNX1_75-92 peptide was titrated into 20 μM hSNX27 proteins.\nThe ITC experiments were conducted with 1 injection of 0.4 μL followed by a series of 12 injections of 3.2 μL each with 180-second intervals and a stirring speed of 850 rpm. The heat exchange of interactions was obtained through integrating the observed peaks and background correction by subtracting the heats of dilution. Data were analyzed with Malvern software package by fitting and normalized data to a single-site binding model, yielding the thermodynamic parameters Kd, ΔH, ΔG, and −TΔS for all binding experiments. The stoichiometry was refined initially, and if the value was close to 1, then N was set to exactly 1.0 for calculation. All experiments were performed at least twice to guarantee reproducibility of the data."}, "[2]": {"settings": "pH 7.5, 800 μM hSNX27FERM into 20 μM mSNX1 protein"}}, "data": [{"molecule": "B1", "values": [{"measurement": "SNX27 binding, in words", "setting": "SNX27", "result": "near undetectable levels"}]}, {"molecule": "B2", "values": [{"measurement": "ΔG", "setting": "[1]; [2]", "result": "-6.02 ± 0.01", "unit": "kcal/mol"}, {"measurement": "ΔH", "setting": "[1]; [2]", "result": "-6.93 ± 0.01", "unit": "kcal/mol"}]}, {"molecule": "B3", "values": [{"measurement": "Kd", "setting": "[1]; 50 mM HEPES pH 7.5, 200 mM NaCl, 5% glycerol, 1 mM β-ME, 800 μM hSNX27FERM titrated into 20 μM mSNX1 protein, single-site fit, mean of at least 2 experiments", "result": 41, "unit": "µM"}, {"measurement": "-TΔS", "setting": "[1]; [2]", "result": "0.24 ± 3.10", "unit": "kcal/mol"}, {"measurement": "ΔG", "setting": "[1]; [2]", "result": "-5.99 ± 0.02", "unit": "kcal/mol"}, {"measurement": "ΔH", "setting": "[1]; [2]", "result": "-6.23 ± 3.11", "unit": "kcal/mol"}]}]}
